Test results reported in publication PMC2592534.

What was measured:
Experiment in all cases: SPR
[1] = target: rat ficolin-A O54A (rat) (UniProt Q9WTS8)
[2] = target: rat ficolin-A M57S (rat)
[3] = target: rat ficolin-A M57E (rat)
[4] = target: rat ficolin-A P59A (rat) (UniProt Q9WTS8)
Sequence of rat ficolin-A P59A (rat) (Q9WTS8 18-335 P76A): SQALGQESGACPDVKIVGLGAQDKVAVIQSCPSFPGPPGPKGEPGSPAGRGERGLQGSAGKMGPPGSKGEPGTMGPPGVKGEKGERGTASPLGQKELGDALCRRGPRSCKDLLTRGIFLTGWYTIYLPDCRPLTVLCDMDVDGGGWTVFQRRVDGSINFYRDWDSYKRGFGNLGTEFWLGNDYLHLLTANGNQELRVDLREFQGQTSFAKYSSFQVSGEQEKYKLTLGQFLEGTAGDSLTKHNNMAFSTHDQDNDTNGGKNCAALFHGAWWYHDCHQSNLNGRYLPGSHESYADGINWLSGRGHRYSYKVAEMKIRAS

Sequence of rat MASP-2A (catalytically inactive MBL-associated serine protease-2, Ser613 to Ala) (Q9JJS8 20-685 S632A): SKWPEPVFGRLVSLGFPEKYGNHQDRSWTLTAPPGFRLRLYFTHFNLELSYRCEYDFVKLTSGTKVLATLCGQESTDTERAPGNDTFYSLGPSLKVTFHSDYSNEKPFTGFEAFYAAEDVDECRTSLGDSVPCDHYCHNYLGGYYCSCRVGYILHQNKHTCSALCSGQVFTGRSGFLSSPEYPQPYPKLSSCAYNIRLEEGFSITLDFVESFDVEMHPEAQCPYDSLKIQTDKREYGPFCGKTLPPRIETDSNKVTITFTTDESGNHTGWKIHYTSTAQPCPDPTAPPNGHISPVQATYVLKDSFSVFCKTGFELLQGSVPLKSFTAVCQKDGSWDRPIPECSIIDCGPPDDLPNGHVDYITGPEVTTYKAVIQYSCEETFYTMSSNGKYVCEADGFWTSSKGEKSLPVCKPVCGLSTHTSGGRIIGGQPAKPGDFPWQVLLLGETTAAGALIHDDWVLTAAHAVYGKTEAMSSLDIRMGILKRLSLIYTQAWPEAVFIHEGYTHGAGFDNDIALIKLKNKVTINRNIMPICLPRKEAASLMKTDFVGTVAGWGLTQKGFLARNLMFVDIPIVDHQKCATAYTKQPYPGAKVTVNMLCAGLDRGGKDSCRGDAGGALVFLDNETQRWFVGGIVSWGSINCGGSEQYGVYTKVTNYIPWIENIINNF
Sequence of rat ficolin-A O54A (rat) (Q9WTS8 18-335 P54A): as the sequence (Q9WTS8 18-335 P76A) above, with P37A, A59P counted along it

KD2 (apparent, two-complex, parallel reaction model) [1]: 153 nM
KD1 (apparent, two-complex, parallel reaction model) [2]: 11.6 nM
KD2 (apparent, two-complex, parallel reaction model) [2]: 133 nM
koff of complex 2 (two-complex, parallel reaction model) [2]: 0.0048 s⁻¹
kon of complex 2 (two-complex, parallel reaction model) [2]: 37000 M⁻¹ s⁻¹
KD1 (apparent, two-complex, parallel reaction model) [3]: 49 nM
KD2 (apparent, two-complex, parallel reaction model) [3]: 3.23 µM
koff of complex 2 (two-complex, parallel reaction model) [3]: 0.0094 s⁻¹
KD1 (apparent, two-complex, parallel reaction model) [4]: 6.8 nM
KD2 (apparent, two-complex, parallel reaction model) [4]: 253 nM
kon of complex 2 (two-complex, parallel reaction model) [4]: 42000 M⁻¹ s⁻¹
Substance: rat MASP-2A (catalytically inactive MBL-associated serine protease-2, Ser613 to Ala) (from UniProt Q9JJS8 20-685) (enzyme)
kon of complex 1 (two-complex, parallel reaction model) [2]: 410000 M⁻¹ s⁻¹
kon of complex 1 (two-complex, parallel reaction model) [4]: 1.13e+06 M⁻¹ s⁻¹
